From patent publication US5336488A, “Method of treating or preventing mastitis in animals with involuting mammary glands by administering recombinant cytokines” (American Cyanamid Company, priority 1992, dated 1994)

B1: recombinant bovine granulocyte macrophage colony stimulating factor (protein, UniProt P11052 18-143, looked up)
Granulocyte-macrophage …: APTRPPNTATRPWQHVDAIKEALSLLNHSSDTDAVMNDTEVVSEKFDSQEPTCLQTRLKLYKNGLQGSLTSLMGSLTMMATHYEKHCPPTPETSCGTQFISFKNFKEDLKEFLFIIPFDCWEPAQK

Legend:
[1] = system: S. aureus; experiment: Therapy of established S. aureus mastitis infections; assay type: in vivo, S. aureus (in lactating Holstein dairy cattle)
Experimental: The percentage of quarters clearing the infection for greater than 1 milking (RESPONDING), as compared to the percentage of quarters which actually cure their infections (CURE) is a measure of the failure of the host cells to kill the bacteria. The relapse rate is the greatest for r-BoIL-2 (combined relapse rate of 40% for the 10 mg dose X's 3). […] Furthermore, if activation of the host cells is effective, as indicated by the r-BoIL-2 and r-BoGM-CSF, then a combination therapy with r-BoIL-1 or antibiotics is useful.
^1 S. aureus infections are established 2-3 weeks prior to treatment.
Treatments are administered after the AM or PM milking by 1-3 successive
intramammary infusions. A total of 120 mammary glands from 28 different
lactating Holstein dairy cattle are used. Recombinant bovine
interleukin1(IL-1) and interleukin2(IL-2) are obtained from IMMUNEX Corp.
Seattle, WA. Na cephapirin is prepared is PBS; and CefaLak ®
(BristolMeyers) is used according to package# insert instructions.
^2 Cytokines are infused intramammary through the teat canal after th
PM milking at the indicated intervals. The total dose is delivered in a
total volume of 10 ml of sterile PBS. The biological activity of rBoIL-1
and rBoIL-2 is 32,000 Units/μg and 22,000 Units/μg, respectively. A
total dose per infusion 200 mg of Na cephapirin and CefaLak ® is
administered after consecutive PM and AM milkings, according to described
^3 The % RESPONDING = quarters which transiently (> 1 milking) are
free of S. aureus divided by the total number of quarters treated.
^4 The % CURED QUARTERS = # of quarters which clear their infection
and remain free of S. aureus divided by the total number of quarters
treated. Infections are considered to have relapsed if there are > 1 CFUs
from three consecutive AM milkings, or > 20 CFUs for two consecutive afte
therapy at anytime during the 14 day monitoring period.
^5 The % RELAPSE = [1 - {[…]}] ×

[2] = Specific biological activity of recombinant cytokine protein; settings: mass of protein
[3] = system: milk PMNs; experiment: Phagocytosis of fluorescent beads by milk PMNs (flow cytometry) after intramammary infusion; assay type: in vivo, bovine (Holstein dairy cattle); settings: FIG. 2H
Experimental: (§1) FIGS. 2(A-I): Quantity and Quality of Milk PMNs from Mammary Glands Infused with r-BolL-1 or r-BoIL-2
(§2) A total of 12 mammary glands from normal lactating Holstein dairy cattle are infused through the teat canal with either 200 μg of r-BoIL-1; 2 mg of r-BoIL-2; or 1 mg of r-BoGM-CSF. Milk samples are collected and the number of viable somatic cells counted on a Coulter® ZM with a C256 Channelyzer. The data is expressed as the somatic cell count per ml of milk sampled at 16, 40, 64 and 88 hours after infusion for r-BoIL-1 (A); r-BoIL-2 (D); or r-BoGM-CSF(G). The total percentage of phagocytosis by milk PMNs (polymorphonuclear cells) is quantitatively measured by flow cytometry by measuring the percentage of cells ingesting 2μ fluorescent beads for r-BoIL-1 (B); r-BoIL-2(E); or r-BoGM-CSF(H). The total population is first gated by forward angle light scatter, FALS and 90° light scatter to only consider viable polymorphonuclear cells. The induction of superoxide after PMA (520.eta.g)stimulation is also monitored using a whole cell cytochrome-c reduction assay, for r-BoIL-1 (C); r-BoIL-2(F); or r-BoGM-CSF(I). PMNs from untreated milk could not be induced to produce superoxide, while peripheral blood PMNs are inducible in a range of 5-15 .eta.M O2 /Minute/10^7 PMNs.

[4] = system: milk PMNs; experiment: Quantity of milk PMNs after intramammary infusion; assay type: in vivo, bovine (Holstein dairy cattle)
Experimental: as §1, §2

[5] = system: S. aureus; experiment: Prevention of S. aureus mastitis in lactating animals; assay type: in vivo, S. aureus (in lactating Holstein dairy cattle); settings: for % CONTROL / % INFECTED: 1 mg, vs Control 2 (30 CFUs)
From the text: This maximal protection correlates with the peak quantitative biological response for this cytokine. […] This also correlates with the peak quantitative biological response of this cytokine and also marks the qualitative increase in phagocytosis and inducible superoxide, FIG. 2D & 2E.
^1 Single intramammary infusion administered after the PM milking. A
total of 100 mammary glands from 22 different lactating Holstein dairy
^2 All glands are free of bacteria on 5 successive samples after the
AM milking prior to the initial infusion.
^3 The total dose in mass of protein is indicated. The biological
^4 Infusions of cytokines were administerd simultaneously with S.
aureus 0, 24 or 48 hours proir to challenge with 30-200 CFUs of S.
^5 Individual quarters are considered cured if the milk samples remai
free of S. aureus. for 14 days after intramammary challenge with of S.
^6 The % Control = (1 - {% Infected After Therapy divided by Infected
in Control Quarters)} × 100.
*Quarters in Control 1 are challenged with 250 CFUs of S. aureus..
Quarters in Control 2 are challenged with 30 CFUs of S. aureus.

[6] = system: Bovine Mammary Gland; experiment: Dose response of bovine mammary gland to intramammary infusion: somatic cell influx into milk; assay type: in vivo, bovine (Holstein dairy cattle)
Experimental: FIG. 1: Dose Response of Bovine Mammary Gland to Intramammary Infusion of Recombinant Cytokines
Five fold serial dilutions of r-BolL-1 (recombinant bovine interleukin-1) from 312.5 μg to […]: r-BoIL-2 (recombinant bovine interleukin-2) from 40 mg to 0.1 mg: and r-BoGM-CSF (recombinant bovine granulocyte macrophage colony stimulating factor) from 0.2 mg to […] are administered at time 0 into 3-4 mammary glands from normal lactating Holstein dairy cattle. A total of 54 mammary gland quarters, 3-4 per group, are infused through the teat canal with various concentrations of recombinant bovine cytokines after the morning milking. Milk samples are collected and the number of viable somatic cells counted on a Coulter® ZM with a C256 Channelyzer. The data is expressed as the somatic cell count per ml of milk
These doses are guidelines for quantitative induction of somatic cells, but significant beneficial qualitative changes can be induced with lower doses. The specific biological activity for r-BoIL-1 as a chemoattractant is approximately 10,000 fold greater than r-BoIL-2, although the in vitro specific bioactivities are equivalent. Active IL-2 inhibition or decreased biostability in milk might explain this discrepancy. The peak number of cells after r-BoIL-1 infusion with a maximal tolerable dose is 4-5 fold greater than r-BoIL-2. The kinetics of PMN migration into the mammary gland is such that migration occurs 8- 24 hours sooner for r-BoIL-1 infusions […] the BolL-2 infusion depending upon the dose. The dominant cell type after r-BoIL-1 or r-BoIL-2 infusion is PMNs.

[7] = system: milk PMNs; experiment: Inducible superoxide of milk PMNs after PMA stimulation (cytochrome-c reduction); assay type: in vivo, bovine (Holstein dairy cattle); settings: r-BoGM-CSF, vs resident PMNs, FIG. 2I
Experimental: as §1, §2

Row | Molecule | % CURES ([1]; 200 mg, interval 12 hrs) [%] | % RELAPSE ([1]; 200 mg, interval 12 hrs) [%] | % RESPONSE ([1]; 200 mg, interval 12 hrs) [%] | relapse rate ([1]; as quoted in text of Example 5) [%] | biological activity [2] | phagocytic ability of the cells in the milk of treated glands ([3]; 24 and 48 hours) | percent of cells which are phagocytic ([3]; r-BoGM-CSF) | increase in phagocytosis, duration ([3]; r-BoGM-CSF, up to 112 hrs) | quantitative changes in milk PMNs ([4]; as summarised in Example 4) | quantitative increase in milk PMNs ([4]; even with a 5 mg intramammary dose, FIG. 2G) | % CONTROL ([5]; -24 hrs) [%] | % INFECTED ([5]; -24 hrs) [%] | % CONTROL ([5]; -48 hrs) [%] | % INFECTED ([5]; -48 hrs) [%] | protection from S. aureus ([5]; administered 24 and 48 hours prior to challenge) | protection from subsequent S. aureus challenge ([5]; intramammary infusion, Table 1) | influx of cells into the mammary gland ([6]; intramammary infusion of up to 5 mg) | infiltration of somatic cells into the milk ([6]; intramammary infusion, lactating cattle, FIG. 1) | inducible superoxide production [7]
1 | CC(=O)OCC1=C(C(=O)O)N2C(=O)[C@@H](NC(=O)CSc3ccncc3)[C@H]2SC1 [Na Cephapirin, sodium cephapirin, reference compound] | 42 | 51 | 86 | 57 |  |  |  |  |  |  |  |  |  |  |  |  |  |  | 
2 | B1 |  |  |  |  | 38,000 Units/μg | increase phagocytic ability | enhanced | maintained above pre-infusion levels for up to 112 hrs | only minor quantitative changes in milk PMNs | fails to elicit any significant quantitative increase in milk PMNs | 76 | 20 | 76 | 20 | good protection from S. aureus | capable of protecting the host from subsequent S. aureus challenge | fails to elicit any significant influx of cells into the mammary gland | no significant chemoattractant activity | increased over the resident PMNs
